Assay results reported in US20230235027A1 (US Dept. of Health and Human Services, published 2023).
“And” between values parts separate entries of the source, which are not always exact repeats. Identical values can stand only once.

Tests used:
[1] = target: T1, SARS-CoV-2 RBD mutant W436R (SARS-CoV-2, UniProt P0DTC2 319-541); assay: competition ELISA, RBD variant coated, competitor biotinylated ACE2
T1 construct: bought variant RBD; also called #SPD-552H7, ACRO Biosystems

[2] = target: T2, SARS-CoV-2 RBD mutant V367F (SARS-CoV-2, UniProt P0DTC2 319-541); assay: as above
T2 construct: bought variant RBD; also called SPD-S52H4, ACRO Biosystems

[3] = target: T3, SARS-CoV-2 RBD mutant N354D/D364Y (SARS-CoV-2, UniProt P0DTC2 319-541); assay: as above
T3 construct: bought variant RBD; also called SPD-S52H3, ACRO Biosystems

[4] = target: T1, SARS-CoV-2 RBD mutant W436R; assay: direct binding to RBD variant (FIG. 7B); format not described further
[5] = target: T2, SARS-CoV-2 RBD mutant V367F; assay: as above
[6] = target: T3, SARS-CoV-2 RBD mutant N354D/D364Y; assay: as above

B1: NIH-CoVnb-112 (VHH)
VHH: DVQLQESGGGLVQPGGSLRLSCAASGLTLDYYAIGWFRQAPGKEREGVSCISSSDGSTYYADSVKGRFTTSRDNAKNTVYLQMNSLKPEDTAVYYCAAVPSTYYSGTYYYTCHPGGMDYWGKGTQVTVSS
Which results are given for B1?
EC50 [1]: ~0.02 µg/mL and ~1.11 nM; EC50 [2]: ~0.02 µg/mL and ~1.11 nM; EC50 [3]: ~1.11 nM and ~0.02 µg/mL; EC50 [4]: ~0.01 µg/mL; EC50 [5]: ~0.01 µg/mL; EC50 [6]: ~0.01 µg/mL
